Source: patent US20180305460A1 (Teva, published 2018)
Substitutions are numbered along the chain they refer to. In names and notes the source's numbering stands.

B1: X02.8 (antibody, human IgG4 S228P)
heavy: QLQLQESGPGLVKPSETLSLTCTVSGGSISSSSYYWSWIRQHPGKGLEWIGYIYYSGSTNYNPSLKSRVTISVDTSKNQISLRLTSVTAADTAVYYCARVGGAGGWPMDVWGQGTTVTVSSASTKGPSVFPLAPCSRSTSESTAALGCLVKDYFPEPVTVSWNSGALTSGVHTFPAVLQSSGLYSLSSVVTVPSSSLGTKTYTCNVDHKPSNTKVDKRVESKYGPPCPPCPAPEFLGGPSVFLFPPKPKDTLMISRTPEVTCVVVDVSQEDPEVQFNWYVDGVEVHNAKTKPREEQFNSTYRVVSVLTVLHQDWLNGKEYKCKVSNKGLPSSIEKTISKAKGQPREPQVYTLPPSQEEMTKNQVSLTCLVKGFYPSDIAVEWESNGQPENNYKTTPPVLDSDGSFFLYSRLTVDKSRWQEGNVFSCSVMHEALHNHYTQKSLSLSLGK
VL: QAVLTQPASLSASPGESARLTCTLPSDINVRYYNIYWYQQKPGSPPRYLLYYYSDSHKGQGSGVPSRFSGSKDVSTNSGILLISGLQSEDEADYYCMTWSSNGSGVFGGGTQLTVLG
notes: IgG4 S228P; VH L74S relative to X02.1
B2: X02.11 (antibody, human IgG4 S228P)
heavy: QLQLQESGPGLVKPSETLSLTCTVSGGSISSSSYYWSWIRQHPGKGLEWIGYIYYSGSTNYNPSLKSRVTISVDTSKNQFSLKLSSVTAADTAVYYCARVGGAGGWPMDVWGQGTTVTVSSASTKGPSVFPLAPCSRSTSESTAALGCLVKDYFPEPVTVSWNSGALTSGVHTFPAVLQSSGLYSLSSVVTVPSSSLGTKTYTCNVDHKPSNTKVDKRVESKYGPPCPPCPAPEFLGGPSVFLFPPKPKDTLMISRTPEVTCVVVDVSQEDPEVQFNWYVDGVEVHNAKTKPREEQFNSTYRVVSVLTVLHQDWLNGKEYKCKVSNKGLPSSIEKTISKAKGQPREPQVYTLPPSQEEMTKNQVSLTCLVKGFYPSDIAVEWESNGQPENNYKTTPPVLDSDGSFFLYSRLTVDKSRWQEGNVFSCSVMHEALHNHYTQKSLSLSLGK
VL: B1 VL
notes: IgG4 S228P; VH L74S, I78F, R81K, T(82A)S relative to X02.1
B3: X02.103 (antibody, V domains shown)
VH: QLQLQESGPGLVKPSETLSLTCTVSGGSISSSSYYWSWIRQHPGKGLEWIGYIYYSGSTNYNPSLKSRVTISVDTLKNQISLRLTSVTAADTAVYYCARVGGAGGWPMDVWGQGTTVTVSS
VL: B1 VL with S78T
notes: IgG4 S228P with the X02.1 VH; VL S70T relative to A02.1
B4: X02.96 (antibody)
heavy: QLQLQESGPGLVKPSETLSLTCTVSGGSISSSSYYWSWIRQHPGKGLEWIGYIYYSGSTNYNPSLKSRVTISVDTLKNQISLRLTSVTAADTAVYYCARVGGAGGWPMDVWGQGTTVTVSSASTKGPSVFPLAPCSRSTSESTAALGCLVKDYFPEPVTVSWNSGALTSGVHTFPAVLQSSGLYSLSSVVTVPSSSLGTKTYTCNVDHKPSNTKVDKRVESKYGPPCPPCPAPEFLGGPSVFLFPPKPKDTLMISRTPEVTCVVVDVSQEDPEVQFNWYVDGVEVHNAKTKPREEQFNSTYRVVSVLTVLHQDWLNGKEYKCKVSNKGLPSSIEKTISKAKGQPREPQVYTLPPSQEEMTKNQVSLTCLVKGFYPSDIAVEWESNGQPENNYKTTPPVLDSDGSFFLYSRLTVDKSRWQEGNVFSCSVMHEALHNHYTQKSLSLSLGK
VL: B1 VL with A8P
notes: IgG4 S228P with the X02.1 VH; VL A8P relative to A02.1
B5: X02.102 (antibody, V domains shown)
VH: B3 VH
VL: B1 VL with T76A
notes: IgG4 S228P with the X02.1 VH; VL T68A relative to A02.1
B6: X02.101 (antibody, V domains shown)
VH: B3 VH
VL: B1 VL with V74A
notes: IgG4 S228P with the X02.1 VH; VL V(66B)A relative to A02.1
B7: X02.73 (antibody, human IgG4 S228P)
heavy: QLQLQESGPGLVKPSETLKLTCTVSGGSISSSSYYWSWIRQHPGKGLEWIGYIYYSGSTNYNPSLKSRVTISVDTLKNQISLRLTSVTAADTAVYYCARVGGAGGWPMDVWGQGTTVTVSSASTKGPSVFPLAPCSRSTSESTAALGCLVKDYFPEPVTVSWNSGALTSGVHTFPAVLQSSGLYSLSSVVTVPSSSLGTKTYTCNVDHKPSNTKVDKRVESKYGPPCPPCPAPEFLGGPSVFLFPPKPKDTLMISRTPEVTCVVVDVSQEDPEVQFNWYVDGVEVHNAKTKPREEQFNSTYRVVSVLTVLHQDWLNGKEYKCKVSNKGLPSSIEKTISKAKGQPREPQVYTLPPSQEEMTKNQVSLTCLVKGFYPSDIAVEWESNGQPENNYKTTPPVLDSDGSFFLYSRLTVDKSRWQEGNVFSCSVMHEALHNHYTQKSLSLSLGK
VL: B1 VL
notes: IgG4 S228P; VH S19K relative to X02.1
B8: X02.75 (antibody, human IgG4 S228P)
heavy: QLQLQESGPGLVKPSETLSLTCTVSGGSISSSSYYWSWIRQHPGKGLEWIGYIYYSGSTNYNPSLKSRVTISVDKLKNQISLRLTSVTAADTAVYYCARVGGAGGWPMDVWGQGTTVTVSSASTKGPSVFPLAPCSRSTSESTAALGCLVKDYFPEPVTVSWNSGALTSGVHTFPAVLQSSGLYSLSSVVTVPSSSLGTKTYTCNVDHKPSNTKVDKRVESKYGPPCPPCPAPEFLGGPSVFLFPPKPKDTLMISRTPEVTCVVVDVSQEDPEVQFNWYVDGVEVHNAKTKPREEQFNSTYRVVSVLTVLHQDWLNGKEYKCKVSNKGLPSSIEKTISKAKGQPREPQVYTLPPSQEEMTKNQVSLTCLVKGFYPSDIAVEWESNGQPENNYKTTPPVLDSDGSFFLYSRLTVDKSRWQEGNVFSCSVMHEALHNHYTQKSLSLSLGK
VL: B1 VL
notes: IgG4 S228P; VH T73K relative to X02.1
B9: X02.72 (antibody, human IgG4 S228P)
heavy: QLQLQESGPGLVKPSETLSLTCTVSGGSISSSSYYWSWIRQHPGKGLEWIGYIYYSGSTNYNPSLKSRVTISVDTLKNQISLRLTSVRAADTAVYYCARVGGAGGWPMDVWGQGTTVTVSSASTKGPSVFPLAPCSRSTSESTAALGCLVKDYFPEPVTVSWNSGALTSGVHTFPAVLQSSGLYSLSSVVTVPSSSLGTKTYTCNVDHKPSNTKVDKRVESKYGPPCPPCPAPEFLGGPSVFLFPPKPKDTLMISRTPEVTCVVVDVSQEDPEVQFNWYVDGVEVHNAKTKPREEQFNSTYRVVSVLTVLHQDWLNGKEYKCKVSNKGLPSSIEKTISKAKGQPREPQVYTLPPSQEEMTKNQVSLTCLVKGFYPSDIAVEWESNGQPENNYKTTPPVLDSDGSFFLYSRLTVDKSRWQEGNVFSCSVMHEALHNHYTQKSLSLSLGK
VL: B1 VL
notes: IgG4 S228P; VH T83R relative to X02.1
B10: X02.70 (antibody, human IgG4 S228P)
heavy: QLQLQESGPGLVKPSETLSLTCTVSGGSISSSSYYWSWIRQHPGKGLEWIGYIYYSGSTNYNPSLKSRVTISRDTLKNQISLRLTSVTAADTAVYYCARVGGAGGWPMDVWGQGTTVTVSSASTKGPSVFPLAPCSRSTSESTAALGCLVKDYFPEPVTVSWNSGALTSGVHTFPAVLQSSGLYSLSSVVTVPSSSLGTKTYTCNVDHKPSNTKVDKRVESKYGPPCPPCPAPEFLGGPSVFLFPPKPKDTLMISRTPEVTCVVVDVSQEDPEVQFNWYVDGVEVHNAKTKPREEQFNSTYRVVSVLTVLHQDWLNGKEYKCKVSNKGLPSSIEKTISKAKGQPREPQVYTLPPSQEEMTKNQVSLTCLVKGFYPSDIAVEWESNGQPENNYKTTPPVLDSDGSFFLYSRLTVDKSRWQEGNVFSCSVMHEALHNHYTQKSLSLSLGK
VL: B1 VL
notes: IgG4 S228P; VH V71R relative to X02.1
B11: X02.82 (antibody, V domains shown)
VH: B3 VH
VL: B1 VL with Y51R
notes: IgG4 S228P with the X02.1 VH; VL Y49R relative to A02.1
B12: X02.83 (antibody)
heavy: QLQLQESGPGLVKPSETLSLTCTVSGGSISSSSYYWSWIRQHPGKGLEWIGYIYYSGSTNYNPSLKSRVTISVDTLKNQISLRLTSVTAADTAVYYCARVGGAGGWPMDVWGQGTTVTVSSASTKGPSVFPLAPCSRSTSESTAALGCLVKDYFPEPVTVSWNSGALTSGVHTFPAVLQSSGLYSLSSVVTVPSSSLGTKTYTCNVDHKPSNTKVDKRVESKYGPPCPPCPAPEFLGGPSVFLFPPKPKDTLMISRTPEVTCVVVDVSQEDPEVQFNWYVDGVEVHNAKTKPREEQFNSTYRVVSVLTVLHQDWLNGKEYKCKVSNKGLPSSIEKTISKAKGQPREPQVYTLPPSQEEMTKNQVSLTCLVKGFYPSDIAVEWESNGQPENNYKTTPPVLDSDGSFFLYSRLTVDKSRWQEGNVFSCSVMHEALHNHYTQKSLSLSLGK
VL: B1 VL with E16A
notes: IgG4 S228P with the X02.1 VH; VL E17A relative to A02.1
B13: X02.85 (antibody, V domains shown)
VH: B3 VH
VL: QAVLTQPASLSASPGESARLTCTLPSDINVRYYNIYWYQQKPGSPPRYLLYYYSDSHKGQGSGVPSRFSGSKSTNSGILLISGLQSEDEADYYCMTWSSNGSGVFGGGTQLTVLG
notes: IgG4 S228P with the X02.1 VH; VL residues D(L66A) and V(L66B) of A02.1 are deleted
B14: X02.9 (antibody, human IgG4 S228P)
heavy: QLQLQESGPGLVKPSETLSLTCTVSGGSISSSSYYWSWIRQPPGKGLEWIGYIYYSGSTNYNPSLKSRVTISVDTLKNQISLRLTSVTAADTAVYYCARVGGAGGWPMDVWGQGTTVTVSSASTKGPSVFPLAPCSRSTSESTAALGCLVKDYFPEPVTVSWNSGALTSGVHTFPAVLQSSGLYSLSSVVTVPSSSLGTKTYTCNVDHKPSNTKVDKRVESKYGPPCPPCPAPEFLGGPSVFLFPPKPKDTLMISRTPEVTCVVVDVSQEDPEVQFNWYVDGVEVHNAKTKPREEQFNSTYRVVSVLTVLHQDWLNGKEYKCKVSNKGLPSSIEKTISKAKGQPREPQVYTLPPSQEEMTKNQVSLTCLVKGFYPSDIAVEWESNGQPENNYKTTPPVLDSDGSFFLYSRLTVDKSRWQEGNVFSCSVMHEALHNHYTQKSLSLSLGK
VL: B1 VL
notes: IgG4 S228P; VH H40P relative to X02.1
B15: X02.10 (antibody, human IgG4 S228P)
heavy: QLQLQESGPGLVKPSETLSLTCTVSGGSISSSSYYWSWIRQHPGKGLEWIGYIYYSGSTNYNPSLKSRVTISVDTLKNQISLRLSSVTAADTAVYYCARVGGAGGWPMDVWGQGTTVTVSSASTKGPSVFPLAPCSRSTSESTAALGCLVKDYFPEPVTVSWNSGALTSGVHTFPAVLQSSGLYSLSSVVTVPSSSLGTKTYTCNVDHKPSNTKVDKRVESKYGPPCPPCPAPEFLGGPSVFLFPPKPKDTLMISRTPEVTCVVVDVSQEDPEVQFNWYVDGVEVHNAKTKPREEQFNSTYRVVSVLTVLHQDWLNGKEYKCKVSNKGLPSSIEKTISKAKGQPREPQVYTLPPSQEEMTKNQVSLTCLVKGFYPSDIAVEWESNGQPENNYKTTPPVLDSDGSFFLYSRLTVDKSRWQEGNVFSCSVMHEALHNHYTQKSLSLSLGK
VL: B1 VL
notes: IgG4 S228P; VH T(82A)S relative to X02.1
B16: X02.108 (antibody, human IgG4 S228P, V domains shown)
VH: B3 VH with I80F
VL: B1 VL
notes: IgG4 S228P; VH I78F relative to X02.1
B17: X02.110 (antibody, human IgG4 S228P, V domains shown)
VH: B3 VH with R83K
VL: B1 VL
notes: IgG4 S228P; VH R81K relative to X02.1
B18: X02.71 (antibody, human IgG4 S228P)
heavy: not shown
VL: B1 VL
notes: IgG4 S228P; VH I29V relative to X02.1
B19: X02.105 (antibody, V domains shown)
VH: B3 VH
VL: B1 VL with S100P
notes: IgG4 S228P with the X02.1 VH; VL S92P relative to A02.1
B20: X02.95 (antibody)
heavy: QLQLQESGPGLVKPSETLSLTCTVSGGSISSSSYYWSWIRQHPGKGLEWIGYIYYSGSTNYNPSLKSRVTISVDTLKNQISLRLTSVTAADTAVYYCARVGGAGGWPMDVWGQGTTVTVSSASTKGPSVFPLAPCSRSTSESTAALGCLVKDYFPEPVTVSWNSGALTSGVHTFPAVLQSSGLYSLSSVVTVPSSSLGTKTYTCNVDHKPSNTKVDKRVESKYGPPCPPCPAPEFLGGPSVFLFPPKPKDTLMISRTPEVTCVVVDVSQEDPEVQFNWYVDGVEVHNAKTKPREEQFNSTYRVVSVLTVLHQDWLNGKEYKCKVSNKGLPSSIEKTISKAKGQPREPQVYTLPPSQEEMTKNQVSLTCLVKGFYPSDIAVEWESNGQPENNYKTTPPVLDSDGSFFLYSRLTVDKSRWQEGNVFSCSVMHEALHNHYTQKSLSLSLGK
VL: B1 VL with A2P
notes: IgG4 S228P with the X02.1 VH; VL A2P relative to A02.1
B21: X02.100 (antibody, V domains shown)
VH: B3 VH
VL: B1 VL with H57D
notes: IgG4 S228P with the X02.1 VH; VL H(54A)D relative to A02.1
B22: X02.99 (antibody, V domains shown)
VH: B3 VH
VL: B1 VL with Y32S
notes: IgG4 S228P with the X02.1 VH; VL Y30S relative to A02.1
B23: X02.98 (antibody, V domains shown)
VH: B3 VH
VL: B1 VL with R31G
notes: IgG4 S228P with the X02.1 VH; VL R29S relative to A02.1
B24: X02.104 (antibody, V domains shown)
VH: B3 VH
VL: B1 VL with T98I
notes: IgG4 S228P with the X02.1 VH; VL T90I relative to A02.1
B25: X02.97 (antibody)
heavy: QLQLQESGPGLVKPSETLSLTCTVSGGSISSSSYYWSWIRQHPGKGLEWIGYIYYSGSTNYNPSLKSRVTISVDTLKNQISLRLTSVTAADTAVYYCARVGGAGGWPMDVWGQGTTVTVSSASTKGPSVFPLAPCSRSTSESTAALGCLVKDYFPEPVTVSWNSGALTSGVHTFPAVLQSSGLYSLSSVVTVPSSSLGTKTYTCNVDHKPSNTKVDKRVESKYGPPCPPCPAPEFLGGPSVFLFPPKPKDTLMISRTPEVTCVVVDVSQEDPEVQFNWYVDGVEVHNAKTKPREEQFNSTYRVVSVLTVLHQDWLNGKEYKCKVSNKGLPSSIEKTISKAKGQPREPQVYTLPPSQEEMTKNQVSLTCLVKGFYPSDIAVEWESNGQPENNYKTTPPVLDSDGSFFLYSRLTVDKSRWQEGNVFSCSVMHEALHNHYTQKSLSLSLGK
VL: B1 VL with L10S
notes: IgG4 S228P with the X02.1 VH; VL L11S relative to A02.1
B26: X02.106 (antibody, V domains shown)
VH: B3 VH
VL: B1 VL with G103A
notes: IgG4 S228P with the X02.1 VH; VL G95A relative to A02.1
B27: X02.76 (antibody, human IgG4 S228P)
heavy: not shown
VL: B1 VL
notes: IgG4 S228P; VH M(100C)L relative to X02.1
B28: X02.77 (antibody, human IgG4 S228P)
heavy: not shown
VL: B1 VL
notes: IgG4 S228P; VH D101E relative to X02.1
B29: X02.74 (antibody, human IgG4 S228P, V domains shown)
VH: B3 VH with M108L, D109E
VL: B1 VL
notes: IgG4 S228P; VH M(100C)L, D101E relative to X02.1
B30: X02.81 (antibody, V domains shown)
VH: B3 VH
VL: B1 VL with N77A
notes: IgG4 S228P with the X02.1 VH; VL N69A relative to A02.1
B31: X02.87 (antibody, V domains shown)
VH: B3 VH
VL: B1 VL with S104A
notes: IgG4 S228P with the X02.1 VH; VL S96A relative to A02.1
B32: X02.90 (antibody, V domains shown)
VH: B3 VH
VL: B1 VL with N102T
notes: IgG4 S228P with the X02.1 VH; VL N94T relative to A02.1
B33: X02.94 (antibody, V domains shown)
VH: B3 VH
VL: B1 VL with M97L
notes: IgG4 S228P with the X02.1 VH; VL M89L relative to A02.1
B34: X02.80 (antibody, V domains shown)
VH: B3 VH
VL: B1 VL with N102Q
notes: IgG4 S228P with the X02.1 VH; VL N94Q relative to A02.1
B35: X02.93 (antibody, V domains shown)
VH: B3 VH
VL: B1 VL with M97I
notes: IgG4 S228P with the X02.1 VH; VL M89I relative to A02.1
B36: X02.68 (antibody, human IgG4 S228P, V domains shown)
VH: B3 VH with T23K
VL: B1 VL
notes: IgG4 S228P; VH T23K relative to X02.1
B37: X02.91 (antibody, V domains shown)
VH: B3 VH
VL: B1 VL with P25R
notes: IgG4 S228P with the X02.1 VH; VL P26R relative to A02.1
B38: X02.86 (antibody, V domains shown)
VH: B3 VH
VL: B1 VL with D27G
notes: IgG4 S228P with the X02.1 VH; VL D(27A)G relative to A02.1

These binders were tested against T1, Human CD38 on CD38-positive myeloma cells (ARP-1, H929) (human, UniProt P28907 43-300) (assay: flow cytometry, ARP-1 cells (CD38-positive)).
T1 construct: Endogenous CD38 on the human myeloma cell lines ARP-1 and H929, used in flow cytometry; also called NCI-H929
Experimental: (§1) The ability of the antibodies or antibody-interferon constructs to bind the human CD38-positive myeloma cell lines ARP-1 or H929 in flow cytometry-based assays was tested. ARP-1 cells or H929 cells (5×10⁵, as judged by trypan blue exclusion) were incubated with each protein or with a human IgG4 monoclonal antibody with irrelevant specificity protein construct at various concentrations in 50 μL of FACS buffer (PBS plus 1% fetal calf serum, FCS, 0.2M HEPES, 0.5M EDTA) in 96 well plates for 60 minutes on ice in the dark. Cells were washed three times with FACS buffer before incubation for 30 minutes in 50 μL of FACS buffer containing goat anti-human IgG (Fc-specific, conjugated to fluorescein isothiocyanate, FITC; Sigma-Aldrich, St. Louis, Mo.). After washing three times with FACS buffer, cells were fixed with 50 μL of PBS containing 4% formaldehyde v/v and incubated at 4° C. in the dark for 16 hours. Incubated cells in suspension were diluted with an additional 150 μL of FACS buffer and analyzed for binding by flow cytometry on a FACS Canto II (BD Biosciences, San Diego, Calif.) using forward scatter, side scatter and fluorescence intensity in the FITC channel. The value reported is the mean fluorescence intensity (MFI).
An EC50 of 18.3 µg/mL was found for B1 in this work.
An EC50 of 18.1 µg/mL was found for B2 in this work.

Target: T1, Human CD38 on CD38-positive myeloma …
Assay: flow cytometry, ARP-1 cells (CD38-positive)
Remark: another data set of the same source
Experimental: Antibodies purified from CHO cell supernatants were subsequently tested in flow cytometry-based binding assays to the CD38 positive cell line ARP-1.
as §1
An EC50 of 9.4 µg/mL was found for B3 in this work.
An EC50 of 30 µg/mL was found for B4 in this work.
An EC50 of 20.4 µg/mL was found for B5 in this work.
An EC50 of 13.7 µg/mL was found for B6 in this work.

Target: T1, Human CD38 on CD38-positive myeloma …
Assay: flow cytometry, ARP-1 cells (CD38-positive)
Remark: another data set of the same source
Experimental: These heavy chain variable regions were formatted on an IgG4 constant region containing an S228P substitution.
as §1
An EC50 of 4.3 µg/mL was found for B7 in this work.
An EC50 of 4.9 µg/mL was found for B8 in this work.
An EC50 of 3.6 µg/mL was found for B9 in this work.
An EC50 of 7.2 µg/mL was found for B10 in this work.

Target: T1, Human CD38 on CD38-positive myeloma …
Assay: flow cytometry, ARP-1 cells (CD38-positive)
Remark: another data set of the same source
Experimental: The ability of the antibodies or antibody-interferon constructs to bind the human CD38-positive myeloma cell lines ARP-1 or H929 in flow cytometry-based assays was tested. ARP-1 cells or H929 cells (5×10⁵, as judged by trypan blue exclusion) were incubated with each protein or with a human IgG4 monoclonal antibody with irrelevant specificity protein construct at various concentrations in 50 μL of FACS buffer (PBS plus 1% fetal calf serum, FCS, 0.2M HEPES, 0.5M EDTA) in 96 well plates for 60 minutes on ice in the dark. Cells were washed three times with FACS buffer before incubation for 30 minutes in 50 μL of FACS buffer containing goat anti-human IgG (Fc-specific, conjugated to fluorescein isothiocyanate, FITC; Sigma-Aldrich, St. Louis, Mo.). After washing three times with FACS buffer, cells were fixed with 50 μL of PBS containing 4% formaldehyde v/v and incubated at 4° C. in the dark for 16 hours. Incubated cells in suspension were diluted with an additional 150 μL of FACS buffer and analyzed for binding by flow cytometry on a FACS Canto II (BD Biosciences, San Diego, Calif.) using forward scatter, side scatter and fluorescence intensity in the FITC channel.
An EC50 of 3.8 µg/mL was found for B11 in this work.
An EC50 of 8.2 µg/mL was found for B12 in this work.
An EC50 of 6.3 µg/mL was found for B13 in this work.

These binders were tested against T2, Human CD38 (human, UniProt P28907 43-300) (assay: SPR (Biacore), antibody from supernatant captured on Protein A, human CD38 injected, 1:1 fit).
Experimental: (§2) The capacity of anti-CD38 antibodies and anti-CD38-attenuated IFN fusion proteins to bind to human CD38 were measured using unpurified transfected cell supernatant prepared 7:1 with Non Specific Binding Reducer (GE Healthcare, Piscataway, N.J.). […] FC2 (or FC4) was used as a reference throughout the experiments. The experiments were run at 37° C. in HBS-P+ buffer (0.01 M HEPES, 0.15 M NaCl, 0.005% v/v Surfactant P20, pH 7.4). At a flow rate of 20 l/min, both flow cells were regenerated with 10 μL 50 mM sodium hydroxide before 40 μL supernatant containing the protein was passed over FC1 (or FC3) only. 301 μL of CD38 (10 g/mL in running buffer) or 30 μL running buffer was injected over FC1 and FC2 with a 5 minute dissociation time. Both surfaces were regenerated twice with sodium hydroxide. Results were generated using the BIAevaluation software provided with the machine. Microsoft Excel was used for calculations. BIAevaluation software automatically subtracted the reference sensorgram giving a trace of FC2-1 (or FC4-3) for each sample. A double reference was performed for each antibody tested by subtracting the sensorgram with a CD38 injection from the sensorgram with a blank running buffer injection. […] BIAevalution was used to fit the sensorgram using a Langmuir 1:1 equation in order to generate an equilibrium association constant (KD)
A Kd of 26.3 nM was found for B14 in this work.
A Kd of 23 nM was found for B1 in this work.
A Kd of 23.9 nM was found for B2 in this work.
A Kd of 20.7 nM was found for B15 in this work.
A Kd of 26.3 nM was found for B16 in this work.
A Kd of 20.7 nM was found for B17 in this work.

Target: T2, Human CD38
Assay: as above
Remark: another data set of the same source
Experimental: as §2
A Kd of 0.129 nM was found for B18 in this work.

Target: T2, Human CD38
Assay: as above
Remark: another data set of the same source
Experimental: as §2
A Kd of 1.28 nM was found for B3 in this work.
A Kd of 33.1 nM was found for B19 in this work.
A Kd of 0.0044 nM was found for B20 in this work.
A Kd of 160 nM was found for B21 in this work.
A Kd of 0.25 nM was found for B4 in this work.
A Kd of 0.12 nM was found for B5 in this work.
A Kd of 0.0289 nM was found for B6 in this work.
A Kd of 0.00321 nM was found for B22 in this work.
A Kd of 0.00584 nM was found for B23 in this work.
A Kd of 10 nM was found for B24 in this work.
A Kd of 0.00751 nM was found for B25 in this work.
A Kd of 44.7 nM was found for B26 in this work.

Target: T2, Human CD38
Assay: as above
Remark: another data set of the same source
Experimental: as §2
A Kd of 0.000158 nM was found for B27 in this work.
A Kd of 0.00911 nM was found for B28 in this work.
A Kd of 0.0685 nM was found for B29 in this work.

Target: T2, Human CD38
Assay: as above
Remark: another data set of the same source
Experimental: as §2
A Kd of 0.267 nM was found for B30 in this work.
A Kd of 1.99 nM was found for B31 in this work.
A Kd of 0.552 nM was found for B32 in this work.
A Kd of 0.00348 nM was found for B33 in this work.
A Kd of 1.44 nM was found for B34 in this work.
A Kd of 0.0256 nM was found for B35 in this work.

Target: T2, Human CD38
Assay: as above
Remark: another data set of the same source
Experimental: as §2
A Kd of 0.385 nM was found for B7 in this work.
A Kd of 0.638 nM was found for B8 in this work.
A Kd of 0.0106 nM was found for B36 in this work.
A Kd of 1.63 nM was found for B9 in this work.
A Kd of 3.54 nM was found for B10 in this work.

Target: T2, Human CD38
Assay: as above
Remark: another data set of the same source
Experimental: as §2
A Kd of 0.707 nM was found for B37 in this work.
A Kd of 4.28 nM was found for B38 in this work.
A Kd of 2.69 nM was found for B12 in this work.
A Kd of 0.27 nM was found for B13 in this work.
